B1: human Fc(gamma)RIIIb (receptor)
chain: GMRTEDLPKAVVFLEPQWYSVLEKDSVTLKCQGAYSPEDNSTQWFHNENLISSQASSYFIDAATVNDSGEYRCQTNLSTLSDPVQLEVHIGWLLLQAPRWVFKEEDPIHLRCHSWKNTALHKVTYLQNGKDRKYFHHNSDFHIPKATLKDSGSYFCRGLVGSKNVSSETVNITITQGLAVSTIS
B2: recombinant human Fc(gamma)RIIb, biotinylated (R&D Systems) (receptor)
chain: APPKAVLKLEPQWINVLQEDSVTLTCRGTHSPESDSIQWFHNGNLIPTHTQPSYRFKANNNDSGEYTCQTGQTSLSDPVHLTVLSEWLVLQTPHLEFQEGETIVLRCHSWKDKPLVKVTFFQNGKSKKFSRSDPNFSIPQANHSHSGDYHCTGNIGYTLYSSKPVTITVQAP
B3: recombinant human Fc(gamma)RI, biotinylated (R&D Systems) (receptor, UniProt P12314 16-288, looked up)
chain: QVDTTKAVITLQPPWVSVFQEETVTLHCEVLHLPGSSSTQWFLNGTATQTSTPSYRITSASVNDSGEYRCQRGLSGRSDPIQLEIHRGWLLLQVSSRVFTEGEPLALRCHAWKDKLVYNVLYYRNGKAFKFFHWNSNLTILKTNISHNGTYHCSGMGKHRYTSAGISVTVKELFPAPVLNASVTSPLLEGNLVTLSCETKLLLQRPGLQLYFSFYMGSKTLRGRNTSSEYQILTARREDSGLYWCEAATEDGNVLKRSPELELQVLGLQLPTP
B4: recombinant human Fc(gamma)RIIa, biotinylated (R&D Systems) (receptor)
chain: AAPPKAVLKLEPPWINVLQEDSVTLTCQGARSPESDSIQWFHNGNLIPTHTQPSYRFKANNNDSGEYTCQTGQTSLSDPVHLTVLSEWLVLQTPHLEFQEGETIMLRCHSWKDKPLVKVTFFQNGKSQKFSHLDPTFSIPQANHSHSGDYHCTGNIGYTLFSSKPVTITVQVPSMGSSSPMGI

This experiment concerns the target SARS-CoV-2-RBD-hIgG-Fc fusion protein of SEQ ID NO: 19.
By EC50 is commonly meant the midpoint of the concentration-response curve. A higher EC50 goes with lower potency in that assay. Molecule B1 registered an EC50 of 11.7 µg/mL.

For B2, the EC50 came out at 2.05 µg/mL. In the case of B3, it took 0.0339 µg/mL to reach a half-maximal effect (EC50). For the molecule B4, a half-maximal effect (EC50) was put at 2.28 µg/mL.
